# Data taken from patent publication US20210324051A1 (published 2021).
# T1: Ravn strain cleaved MARV GP ectodomain (Marburg virus, Ravn strain, UniProt Q1PDC7 19-648)
# T1 chain: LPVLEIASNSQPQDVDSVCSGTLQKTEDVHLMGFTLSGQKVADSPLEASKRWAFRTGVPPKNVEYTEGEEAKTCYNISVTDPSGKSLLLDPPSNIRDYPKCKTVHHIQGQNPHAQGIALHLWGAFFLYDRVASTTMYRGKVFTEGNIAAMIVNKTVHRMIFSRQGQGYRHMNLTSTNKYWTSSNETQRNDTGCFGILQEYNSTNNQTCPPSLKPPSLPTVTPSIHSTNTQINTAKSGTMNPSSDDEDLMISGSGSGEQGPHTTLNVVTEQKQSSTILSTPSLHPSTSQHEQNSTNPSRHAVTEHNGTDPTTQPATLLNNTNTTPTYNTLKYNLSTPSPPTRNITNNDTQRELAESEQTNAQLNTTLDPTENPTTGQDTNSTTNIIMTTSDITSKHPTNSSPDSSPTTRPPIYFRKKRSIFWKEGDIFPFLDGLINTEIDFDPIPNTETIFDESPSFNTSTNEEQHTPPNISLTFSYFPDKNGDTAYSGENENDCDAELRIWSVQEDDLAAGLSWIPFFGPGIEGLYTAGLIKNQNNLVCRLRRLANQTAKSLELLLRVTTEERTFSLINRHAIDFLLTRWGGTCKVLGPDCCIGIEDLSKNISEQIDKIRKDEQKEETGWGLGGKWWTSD
# T2: EBOV Mayinga strain cleaved GP ectodomain (Ebola virus, Mayinga strain, UniProt Q05320 33-650)
# T2 chain: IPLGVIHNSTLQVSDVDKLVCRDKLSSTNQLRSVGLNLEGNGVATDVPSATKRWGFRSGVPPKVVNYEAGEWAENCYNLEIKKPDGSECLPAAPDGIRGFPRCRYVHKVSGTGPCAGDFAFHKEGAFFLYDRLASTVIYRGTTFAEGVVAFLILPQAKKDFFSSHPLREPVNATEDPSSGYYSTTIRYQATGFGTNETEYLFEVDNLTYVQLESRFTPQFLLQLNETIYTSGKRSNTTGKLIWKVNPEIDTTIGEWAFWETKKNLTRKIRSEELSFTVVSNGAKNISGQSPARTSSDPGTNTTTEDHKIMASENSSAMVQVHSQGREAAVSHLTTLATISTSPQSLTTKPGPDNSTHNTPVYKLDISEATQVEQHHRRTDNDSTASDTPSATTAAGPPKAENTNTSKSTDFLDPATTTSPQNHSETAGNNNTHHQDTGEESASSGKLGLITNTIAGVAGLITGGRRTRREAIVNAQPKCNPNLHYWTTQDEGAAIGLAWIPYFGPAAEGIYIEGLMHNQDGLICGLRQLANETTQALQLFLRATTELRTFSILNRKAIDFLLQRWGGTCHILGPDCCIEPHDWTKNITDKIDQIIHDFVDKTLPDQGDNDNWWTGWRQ
# T3: EBOV Mayinga strain GP ectodomain containing the glycan cap and mucin-like domain (Ebola virus, Mayinga strain, UniProt Q05320 33-650)
# T3 chain: T2 chain
# T4: Angola strain MARV GP ectodomain containing the mucin-like domain (Marburg virus, Angola strain, UniProt Q1PD50 19-648)
# T4 chain: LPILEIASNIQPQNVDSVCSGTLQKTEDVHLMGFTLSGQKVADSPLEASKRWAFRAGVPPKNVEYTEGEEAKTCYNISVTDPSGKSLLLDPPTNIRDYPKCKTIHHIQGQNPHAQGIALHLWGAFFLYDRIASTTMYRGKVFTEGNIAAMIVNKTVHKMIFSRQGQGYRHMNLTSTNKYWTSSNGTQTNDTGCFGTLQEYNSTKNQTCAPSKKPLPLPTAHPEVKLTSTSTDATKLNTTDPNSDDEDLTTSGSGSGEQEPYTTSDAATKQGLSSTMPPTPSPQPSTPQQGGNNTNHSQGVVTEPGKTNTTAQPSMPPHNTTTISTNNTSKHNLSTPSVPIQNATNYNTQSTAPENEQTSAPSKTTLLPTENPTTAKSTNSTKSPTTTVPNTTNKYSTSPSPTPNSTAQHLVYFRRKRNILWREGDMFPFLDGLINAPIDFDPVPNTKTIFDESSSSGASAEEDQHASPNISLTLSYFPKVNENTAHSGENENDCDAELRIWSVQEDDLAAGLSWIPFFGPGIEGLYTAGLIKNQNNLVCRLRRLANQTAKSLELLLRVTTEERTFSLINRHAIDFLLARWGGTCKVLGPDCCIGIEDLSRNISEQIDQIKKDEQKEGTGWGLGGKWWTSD
# B1: MR65 (antibody, V domains shown)
# VH: EVQLLESGGGLVQPGGSLRLSCAASGFTFSSYAMSWVRQAPGQGLEWVSGISATGGNTYYPDSVKGRFTISRDNSKNTLYLQMNSLRAEDTAVYYCARPLQFLTWFDPWGQGTLVTVSS
# VL: EIVLTQSPATLSLSPGERATLSCRASQSVNNFLAWYQQKPGQPPRLLIYDATNRATGIPARFSGSGSGTDFTLTISSLEPEDFAVYHCQHRSNWPSITFGQGTRLEIK
# B2: MR144 (antibody, V domains shown)
# V domain 1: QVQLQESGPGLVKPSETLSLTCTVSGDSISRYYWSWIRQPPGKGLEWIGYLYYSGSTDYNPSLKSRVTISVDTSKNQFSLNLTSVTAADTAVYYCARGSSRGIGVVSHWFDPWGQGT
# V domain 2: SYVLTQPPSVSVAPGQTARITCGGSNMGYKSVQWYQQRPGQAPVLVVYDDTDRPSGIPERFSGSNSGATATLTISSVEAGDEADYYCQVWDSSSDHHVVFGGGTQVTVL
# B3: MR208 (antibody, V domains shown)
# VH: QVQLQESGPGLVKPSETLSLTCSVSGDSVSSGDYYWSWLRQPPGKGLEWIGYIYYSGATNYNPSLKSRVTISLDTSKNQFSLKLTSVTAADTAVYYCARERAGFLEWLFFEDWGQGT
# VL: DIQMTQSPSSLSASVGDRVTIFCRASQSIGTYLSWYQQKPGKAPKVLIYATSNLQSGVPSRFSGSGSGTEFTLTISSLQPEDFATYYCQQSRTFGQGTKVDMK
# B4: MR232 (antibody, V domains shown)
# VH: QLQLQESGPGLVKPSETLSLTCAVSGGSISSSGYCWGWIRQPPGKGLEWIASICSSGTTYFNSSLKSRVSISIDTSRPQFLLNLRSLTAADTAVYYCARQRMELHFLEWLFPFDSWGQGTLVTVSS
# VL: DIVMTQSPATLSVSPGERATLSCRASQSVSSNLAWYQQKPGQAPRLLISGASTRATGIPARFSGSGSGTEFTLTISSLQSEDFAVYYCQQYINWPCSFGQGTKVDIK
# B5: MR191 human monoclonal antibody (antibody, V domains shown)
# VH: QLQLQESGPGLVKPSETLSLSCTVSGVSISDNSYYWGWIRQPPGKGLEWIGTISYSGNTYYNPSLKSRVSISGDTSKHQLSLKVSSVTAADTAVYYCARQRIVSGFVEWLSKFDYWGQGTLVTVSS
# VL: QSVLTQPPSVSGAPGQRVTISCTGSSSNIGAGFDVHWYQQLPGTAPKLLIYDNNNRPSGVPDRFSGSKSGTSASLAITGLQAEDEADYYCQSYDTSLSGPVVFGGGTKLTVL
# B6: MR72 human monoclonal antibody (antibody, V domains shown)
# VH: QLQLQESGPGLVKPSETLSLTCTVSGDSINNTNYYWAWIRQPPGKGLEYIGSIYYSGSTYYNPSLKSRVTMSVDASKNQFSLRLSSVTAADTAVYYCATHPTLGAFVLLWFGANFDHWGQGTLVTVSS
# VL: QAVVTQPPSVSGAPGQRVTISCTGSSSNIGANYDVHWYQQLPGTAPKLLMYSNTNRPSGVPDRFSGSKSGTSASLAITGLQAEDEADYYCQSYDNSLNSWVFGGGTQLTVL
# B7: MR209 (antibody)
# chain 1: QLQLQESGPGLVKPSETLSLTCTVAGGPITSNNYYWGWIRQSPGKGLEWIGSVYYSGNTYYNPSIKTRVTMSVDTSKSQFSLKLNSVTAADTAVYYCARQFRLLQFVEWLHHFDSWGPGN
# chain 2: SYVLTQPPSVSVAPGQTARIPCGGNDIANKRVHWYQQKPGQAPMLVVYDDGDRPSGIPERFSGSNSGNTATLTISRVEAGDEADYYCQVWENSSDLCVVFGGGTKLTVL
# B8: MR111 human monoclonal antibody (antibody, V domains shown)
# V domain 1: QVQLQESGPGLVKPSETLSLTCTVSGDSINNYYWSWIRQPPGKGLEWIGYIYYSNTNYNPSLKSRVTISVDTSKNQFSLRLSSVTAADTAVYYCARSPLFWFGEFFSSPDHFDFWGQGTL
# V domain 2: QSALTQPASVSGSPGQSITISCTGTSSDVGSYDLVSWYQQHPGKAPKLMLYEGTKRPSGVSNRFSGSKSGNTASLTISGLQAEDEADYYCCSYAGGSTLVFGGGTQVTVL
# B9: MR229 (antibody)
# chain 1: EVQLVESGGGLVKPGGSLRISCVTSGFTFGDYAMSWFRQAPGKGLEWVGFIRNKGYGGTIDYAASVKGRFTISRDDSKSIAYLQMNSLKTEDTAVYYCTGVRLHYDFWSGYDDDSFHIWGQGTM
# chain 2: DGVMTQSPLSLPVTPGQPASISCRSTQSLVHGDGDTYLYWFQQRPGQSPRRLIYKVSNRDSGVPDRFSGSGSGTDFTLKISRVEAEDVGVYYCMQSTHWPPTFGQ
# B10: MR241 (antibody, V domains shown)
# VH: QVQLQESGPGLVKPSETLSLTCTVSGASISGNFWSWIRQPPGKGLEYIGYMSDIGTTNYSPSLKSRVTISVDTSKNQFSLNLTSVTAADAAVYYCARLVAVPGFFYHYYMDVWGEGTLVTVSS
# VL: DIVMTQSPSSVSASVGDRVTITCRASQGISGWLAWYQQKPGKAPKLLIYATSTLQSGVPSRFSGSESGTAFTLTISSLQPEDFATYYCQQANSFPLTFGGGTKVEIK
# B11: MR82 (antibody, V domains shown)
# VH: QVQLVQSGAEVKKPGASVKVSCKASGHTFTTYAIHWVRQAPGQGLEWMGWINPDNDNTEYSQKFQGRVTITRDTSASTAYMELSSLISEDTAVFYCASASYTFWSGYYSGLDYWGQGTLVTVSS
# VL: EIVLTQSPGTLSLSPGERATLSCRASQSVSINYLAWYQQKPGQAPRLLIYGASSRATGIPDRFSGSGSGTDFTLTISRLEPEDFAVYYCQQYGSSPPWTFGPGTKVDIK
# Legend:
# Assay in all cases: ELISA
# [1] = molecular target: Angola strain MARV GP ectodomain lacking residues 257-425 of the mucin-like domain (Marburg virus, Angola strain, UniProt Q1PD50 19-648)
# [2] = molecular target: EBOV Mayinga strain GP ectodomain lacking residues 314-462 of the mucin-like domain (Ebola virus, Mayinga strain, UniProt Q05320 33-650)
# [3] = molecular target: T1, Ravn strain cleaved MARV GP ectodomain
# [4] = molecular target: T2, EBOV Mayinga strain cleaved GP …
# [5] = molecular target: T3, EBOV Mayinga strain GP ectodomain …
# [6] = molecular target: T4, Angola strain MARV GP ectodomain …
Binder,EC50 [1],EC50 [2],EC50 [3],EC50 [4],EC50 [5],EC50 [6]
B1,7.5 µg/mL,> 1000 µg/mL,5 µg/mL,> 1000 µg/mL,> 1000 µg/mL,8.3 µg/mL
B2,8 µg/mL,> 1000 µg/mL,3.3 µg/mL,> 1000 µg/mL,> 1000 µg/mL,8.1 µg/mL
B3,7.3 µg/mL,> 1000 µg/mL,2.8 µg/mL,> 1000 µg/mL,> 1000 µg/mL,5.6 µg/mL
B4,1.3 µg/mL,> 1000 µg/mL,0.5 µg/mL,> 1000 µg/mL,> 1000 µg/mL,2 µg/mL
B5,5.1 µg/mL,> 1000 µg/mL,1.4 µg/mL,< 0.1 µg/mL,> 1000 µg/mL,2.5 µg/mL
B6,4.7 µg/mL,2.1 µg/mL,0.8 µg/mL,< 0.1 µg/mL,6.1 µg/mL,3 µg/mL
B7,5.4 µg/mL,> 1000 µg/mL,2 µg/mL,> 1000 µg/mL,> 1000 µg/mL,4 µg/mL
B8,4.3 µg/mL,> 1000 µg/mL,1.5 µg/mL,21.5 µg/mL,> 1000 µg/mL,2.5 µg/mL
B9,2.9 µg/mL,> 1000 µg/mL,1.2 µg/mL,> 1000 µg/mL,> 1000 µg/mL,1.8 µg/mL
B10,4 µg/mL,> 1000 µg/mL,1.2 µg/mL,> 1000 µg/mL,> 1000 µg/mL,2.2 µg/mL
B11,1.5 µg/mL,> 1000 µg/mL,0.5 µg/mL,> 1000 µg/mL,> 1000 µg/mL,1 µg/mL
